Laboratory results as given in the RNAGym collection of RNA variant scans (doi:10.7554/elife.80360).

B1: HDV Ribozyme (parent)
chain: GGCCGGCAUGGUCCCAGCCUCCUCGCUGGCGCCGGCUGGGCAACAUUCCGAGGGGACCGUCCCCUCGGUAAUGGCGAAUGGGACCCA

Variants of: B1
Experiment: self-cleavage, relative activity (ratio to wild type); higher = more cleavage; co-transcriptional

Variant	self-cleavage
GGCCGGCAUGGUCCCAGCCUCCUCGCUGGCGCCGGCUGGGCAACAUACCGAGGGGACCGUCCCCUCGGUAAUGGCGAACGGGACCCA [U47A U79C]	0.312
GGCCGGCAUGGUCCCAGCCUCCUCGCUGGCGCCGGCUGGGCAACAUACCGAGGGGACCGUCCCCUCGGUAAUGGCGAAAGGGACCCA [U47A U79A]	0.598
GGCCGGCAUGGUCCCAGCCUCCUCGCUGGCGCCGGCUGGGCAACAUACCGAGGGGACCGUCCGCUCGGUAAUGGCGAAUGGGACCCA [U47A C63G]	0.653
GGCCGGCAUGGUCCCAGCCUCCUCGCUGGCGCCGGCUGGGCAACAUACCGAGGGGACCGUCCACUCGGUAAUGGCGAAUGGGACCCA [U47A C63A]	0.96
GGCCGGCAUGGUCCCAGCCUCCUCGCUGGCGCCGGCUGGGCAACAUACCGAGAGGACCGUCCCCUCGGUAAUGGCGAAUGGGACCCA [U47A G53A]	1.22
GGCCGGCAUGGUCCCAGCCUCCUCGCUGGCGCCGGCUGGGCAACAUACCGAGGGGACCCUCCCCUCGGUAAUGGCGAAUGGGACCCA [U47A G59C]	1.11
GGCCGGCAUGGUCCCAGCCUCCUCGCUGGCGCCGGCUGGGCAACAUCCCGAGGGGACCGUCCCCUCGGUAAUGGCGGAUGGGACCCA [U47C A77G]	0.612
GGCCGGCAUGGUCCCAGCCUCCUCGCUGGCGCCGGCUGGGCAACAUCCCGAGCGGACCGUCCCCUCGGUAAUGGCGAAUGGGACCCA [U47C G53C]	0.653
GGCCGGCAUGGUCCCAGCCUCCUCGCUGGCGCCGGCUGGGCAACAUCCCGAGAGGACCGUCCCCUCGGUAAUGGCGAAUGGGACCCA [U47C G53A]	0.87
GGCCGGCAUGGUCCCAGCCUCCUCGCUGGCGCCGGCUGGGCAACAGUCCGAGGGGACCGUCCCCUCGGCAAUGGCGAAUGGGACCCA [U46G U69C]	0.582
GGCCGGCAUGGUCCCAGCCUCCUCGCUGGCGCCGGCUGGGCAACAUCCCGGGGGGACCGUCCCCUCGGUAAUGGCGAAUGGGACCCA [U47C A51G]	0.969
GGCCGGCAUGGUCCCAGCCUCCUCGCUGGCGCCGGCUGGGCAACAUACCGAGGGGACCGUCCCCUCGGUAAUGGCGAAUGGGACCUA [U47A C86U]	0.88
GGCCGGCAUGGUCCCAGCCUCCUCGCUGGCGCCGGCUGGGCAACAUACCGAGGGGACCGUCCCCUCGGUAAUGGCGAAUGGGACCAA [U47A C86A]	1.04
GGCCGGCAUGGUCCCAGCCUCCUCGCUGGCGCCGGCUGGGCAACAUACCGAGGGGACCGUCCCCUCGGUAAUGGCGAAUGGGACCGA [U47A C86G]	0.733
GGCCGGCAUGGUCCCAGCCUCCUCGCUGGCGCCGGCUGGGCAACAUCCCGAGGGGACCGUCCCCUCGUUAAUGGCGAAUGGGACCCA [U47C G68U]	0.462
GGCCGGCAUGGUCCCAGCCUCCUCGCUGGCGCCGGCUGGGCAACAUCCCGAGGGGACCGUCCCCUCGAUAAUGGCGAAUGGGACCCA [U47C G68A]	0.867
GGCCGGCAUGGUCCCAGCCUCCUCGCUGGCGCCGGCUGGGCAACAUACCGAGGGGACCGCCCCCUCGGUAAUGGCGAAUGGGACCCA [U47A U60C]	0.88
GGCCGGCAUGGUCCCAGCCUCCUCGCUGGCGCCGGCUGGGCAACAUCCCGAGGGGACCGUCCCCUAGGUAAUGGCGAAUGGGACCCA [U47C C66A]	0.875
GGCCGGCAUGGUCCCAGCCUCCUCGCUGGCGCCGGCUGGGCAACAUACCGAGGGGACCGUCCCCUCGCUAAUGGCGAAUGGGACCCA [U47A G68C]	0.982
GGCCGGCAUGGUCCCAGCCUCCUCGCUGGCGCCGGCUGGGCAACAUACCGAGGGGACCGUCCCCUCGGUAAUGGCGGAUGGGACCCA [U47A A77G]	0.831
GGCCGGCAUGGUCCCAGCCUCCUCGCUGGCGCCGGCUGGGCAACAUCCCGAGGGGACCGUCCCCUCGGUAAUGGCGAAUGGGACUCA [U47C C85U]	0.831
GGCCGGCAUGGUCCCAGCCUCCUCGCUGGCGCCGGCUGGGCAACAUCCCGAGGGGACCGUCCCCUCGGUAAUGGCGAAUGGGACGCA [U47C C85G]	0.831

Variant	self-cleavage
GGCCGGCAUGGUCCCAGCCUCCUCGCUGGCGCCGGCUGGGCAACAUCCCGAGGGGACCGUCCUCUCGGUAAUGGCGAAUGGGACCCA [U47C C63U]	1.07
GGCCGGCAUGGUCCCAGCCUCCUCGCUGGCGCCGGCUGGGCAACAUACCGAGGGGACCGUCCCCUCGGUAAUGGCGAAUGGGAUCCA [U47A C84U]	0.735
GGCCGGCAUGGUCCCAGCCUCCUCGCUGGCGCCGGCUGGGCAACAUACCGAGGGGACCGUCCCCUCGGUAAUGGCGAAUGGGAGCCA [U47A C84G]	0.831
GGCCGGCAUGGUCCCAGCCUCCUCGCUGGCGCCGGCUGGGCAACAUACCGAGGGGACCGUCCCCCCGGUAAUGGCGAAUGGGACCCA [U47A U65C]	0.8
GGCCGGCAUGGUCCCAGCCUCCUCGCUGGCGCCGGCUGGGCAACAUACCGAGGGGACCGUCCCCUCGGGAAUGGCGAAUGGGACCCA [U47A U69G]	1.13
GGCCGGCAUGGUCCCAGCCUCCUCGCUGGCGCCGGCUGGGCAACAUACCGAGGGGACCGUCCCCUCGGAAAUGGCGAAUGGGACCCA [U47A U69A]	1.02
GGCCGGCAUGGUCCCAGCCUCCUCGCUGGCGCCGGCUGGGCAACAUACCUAGGGGACCGUCCCCUCGGUAAUGGCGAAUGGGACCCA [U47A G50U]	1.18
GGCCGGCAUGGUCCCAGCCUCCUCGCUGGCGCCGGCUGGGCAACAUACCCAGGGGACCGUCCCCUCGGUAAUGGCGAAUGGGACCCA [U47A G50C]	0.855
GGCCGGCAUGGUCCCAGCCUCCUCGCUGGCGCCGGCUGGGCAACAUACCGAGGGGAUCGUCCCCUCGGUAAUGGCGAAUGGGACCCA [U47A C57U]	0.944
GGCCGGCAUGGUCCCAGCCUCCUCGCUGGCGCCGGCUGGGCAACAUACCGAGGGGACCGUCCCCUCGGUAAUGGCGAAUGAGACCCA [U47A G81A]	0.341
GGCCGGCAUGGUCCCAGCCUCCUCGCUGGCGCCGGCUGGGCAACAUACCGAGGGGGCCGUCCCCUCGGUAAUGGCGAAUGGGACCCA [U47A A56G]	0.965
GGCCGGCAUGGUCCCAGCCUCCUCGCUGGCGCCGGCUGGGCAACAUACCGAGGGGACCGUCCCCUCGGUAAUGGCGAAUGGGACGCA [U47A C85G]	0.665
GGCCGGCAUGGUCCCAGCCUCCUCGCUGGCGCCGGCUGGGCAACAUAACGAGGGGACCGUCCCCUCGGUAAUGGCGAAUGGGACCCA [U47A C48A]	0.973
GGCCGGCAUGGUCCCAGCCUCCUCGCUGGCGCCGGCUGGGCAACAUACCGAGGGGACCGUCCCCUCGGUAAUGGCGAAUGGUACCCA [U47A G82U]	0.142
GGCCGGCAUGGUCCCAGCCUCCUCGCUGGCGCCGGCUGGGCAACAUACCGAGGGGACCGUCCCCUCGGUAAUGGCGAAUGGAACCCA [U47A G82A]	0.298
GGCCGGCAUGGUCCCAGCCUCCUCGCUGGCGCCGGCUGGGCAACAUCCCGAGGGGACCGUCCCCUCGGUAAUGGCGAUUGGGACCCA [U47C A78U]	0.277
GGCCGGCAUGGUCCCAGCCUCCUCGCUGGCGCCGGCUGGGCAACAUACCGAGGGGACCGUCCCCUCGGUAAUGGGGAAUGGGACCCA [U47A C75G]	0.172
GGCCGGCAUGGUCCCAGCCUCCUCGCUGGCGCCGGCUGGGCAACAGUCCGAGGGGACCGUCCCCUCGGUAAUGGCGAAGGGGACCCA [U46G U79G]	0.787
GGCCGGCAUGGUCCCAGCCUCCUCGCUGGCGCCGGCUGGGCAACAGUCCGAGGGGACCGUCCCCUCGGUAAUGGCGAACGGGACCCA [U46G U79C]	0.0519
GGCCGGCAUGGUCCCAGCCUCCUCGCUGGCGCCGGCUGGGCAACAUCCCGAGGGGACCGUCCCCUCGGUAAUGGCGAAUGGGGCCCA [U47C A83G]	0.612
GGCCGGCAUGGUCCCAGCCUCCUCGCUGGCGCCGGCUGGGCAACAUACCGAGGGGACCGUCCCCUCGGUAAUGGCGAAUAGGACCCA [U47A G80A]	0.277
GGCCGGCAUGGUCCCAGCCUCCUCGCUGGCGCCGGCUGGGCAACAUCCCGAGGGGACCGUCCCCUCGGUAAUGGCGAAUGGGAUCCA [U47C C84U]	0.475

Variant	self-cleavage
GGCCGGCAUGGUCCCAGCCUCCUCGCUGGCGCCGGCUGGGCAACAUCCCGAGGGGACCGUCCCCUCGGUAAUGGCGAAUGGGAGCCA [U47C C84G]	0.604
GGCCGGCAUGGUCCCAGCCUCCUCGCUGGCGCCGGCUGGGCAACAUACUGAGGGGACCGUCCCCUCGGUAAUGGCGAAUGGGACCCA [U47A C49U]	0.972
GGCCGGCAUGGUCCCAGCCUCCUCGCUGGCGCCGGCUGGGCAACAUACCGAGGAGACCGUCCCCUCGGUAAUGGCGAAUGGGACCCA [U47A G54A]	0.95
GGCCGGCAUGGUCCCAGCCUCCUCGCUGGCGCCGGCUGGGCAACAUCCCGAGGGGACCGUCCCCUCGGUAAUGGAGAAUGGGACCCA [U47C C75A]	0.214
GGCCGGCAUGGUCCCAGCCUCCUCGCUGGCGCCGGCUGGGCAACAUCCCGAGGGGACCGUCCCAUCGGUAAUGGCGAAUGGGACCCA [U47C C64A]	0.567
GGCCGGCAUGGUCCCAGCCUCCUCGCUGGCGCCGGCUGGGCAACAUCCCGAGGGGACCGUCCCGUCGGUAAUGGCGAAUGGGACCCA [U47C C64G]	0.511
GGCCGGCAUGGUCCCAGCCUCCUCGCUGGCGCCGGCUGGGCAACAUCCCGAGGGGACCGUCCCCUCGGUCAUGGCGAAUGGGACCCA [U47C A70C]	0.739
GGCCGGCAUGGUCCCAGCCUCCUCGCUGGCGCCGGCUGGGCAACAUCCCGAGGGGACCGUCCCCUCGGUAAUGGCGAAUGGGACCGA [U47C C86G]	0.675
GGCCGGCAUGGUCCCAGCCUCCUCGCUGGCGCCGGCUGGGCAACAGUCCGAGGGGACCGUCCCCUCGGUAAGGGCGAAUGGGACCCA [U46G U72G]	0.623
GGCCGGCAUGGUCCCAGCCUCCUCGCUGGCGCCGGCUGGGCAACAUCCCGAGGGGACCGUCCCCUCGGUAGUGGCGAAUGGGACCCA [U47C A71G]	1.13
GGCCGGCAUGGUCCCAGCCUCCUCGCUGGCGCCGGCUGGGCAACAUCCCGAGGGGACCGUCCCCUCGGUAUUGGCGAAUGGGACCCA [U47C A71U]	1.11
GGCCGGCAUGGUCCCAGCCUCCUCGCUGGCGCCGGCUGGGCAACAUACCGAGGGGACCGUCGCCUCGGUAAUGGCGAAUGGGACCCA [U47A C62G]	0.54
GGCCGGCAUGGUCCCAGCCUCCUCGCUGGCGCCGGCUGGGCAACAUACCGAGGGGACCGUCCCCUCGGUAAAGGCGAAUGGGACCCA [U47A U72A]	0.748
GGCCGGCAUGGUCCCAGCCUCCUCGCUGGCGCCGGCUGGGCAACAUACCGAGGGGACCGUCCCCUCGGUAAGGGCGAAUGGGACCCA [U47A U72G]	0.665
GGCCGGCAUGGUCCCAGCCUCCUCGCUGGCGCCGGCUGGGCAACAUCCCAAGGGGACCGUCCCCUCGGUAAUGGCGAAUGGGACCCA [U47C G50A]	0.749
GGCCGGCAUGGUCCCAGCCUCCUCGCUGGCGCCGGCUGGGCAACAUACCGAGGGGACCGUCCCCUCGGUAGUGGCGAAUGGGACCCA [U47A A71G]	1.03
GGCCGGCAUGGUCCCAGCCUCCUCGCUGGCGCCGGCUGGGCAACAUCACGAGGGGACCGUCCCCUCGGUAAUGGCGAAUGGGACCCA [U47C C48A]	0.875
GGCCGGCAUGGUCCCAGCCUCCUCGCUGGCGCCGGCUGGGCAACAUCUCGAGGGGACCGUCCCCUCGGUAAUGGCGAAUGGGACCCA [U47C C48U]	0.597
GGCCGGCAUGGUCCCAGCCUCCUCGCUGGCGCCGGCUGGGCAACAUACCGAGGGGACCGUUCCCUCGGUAAUGGCGAAUGGGACCCA [U47A C61U]	0.814
GGCCGGCAUGGUCCCAGCCUCCUCGCUGGCGCCGGCUGGGCAACAUACCGAGGGGACCGUACCCUCGGUAAUGGCGAAUGGGACCCA [U47A C61A]	0.886
